Reference: PMC8139713

Target: ACE2-Fc (soluble human ACE2 fused to human IgG Fc) (human) (UniProt Q9BYF1)
Assay: BLI

Sequence of ACE2-Fc (soluble human ACE2 fused to human IgG Fc) (human) (Q9BYF1 18-738): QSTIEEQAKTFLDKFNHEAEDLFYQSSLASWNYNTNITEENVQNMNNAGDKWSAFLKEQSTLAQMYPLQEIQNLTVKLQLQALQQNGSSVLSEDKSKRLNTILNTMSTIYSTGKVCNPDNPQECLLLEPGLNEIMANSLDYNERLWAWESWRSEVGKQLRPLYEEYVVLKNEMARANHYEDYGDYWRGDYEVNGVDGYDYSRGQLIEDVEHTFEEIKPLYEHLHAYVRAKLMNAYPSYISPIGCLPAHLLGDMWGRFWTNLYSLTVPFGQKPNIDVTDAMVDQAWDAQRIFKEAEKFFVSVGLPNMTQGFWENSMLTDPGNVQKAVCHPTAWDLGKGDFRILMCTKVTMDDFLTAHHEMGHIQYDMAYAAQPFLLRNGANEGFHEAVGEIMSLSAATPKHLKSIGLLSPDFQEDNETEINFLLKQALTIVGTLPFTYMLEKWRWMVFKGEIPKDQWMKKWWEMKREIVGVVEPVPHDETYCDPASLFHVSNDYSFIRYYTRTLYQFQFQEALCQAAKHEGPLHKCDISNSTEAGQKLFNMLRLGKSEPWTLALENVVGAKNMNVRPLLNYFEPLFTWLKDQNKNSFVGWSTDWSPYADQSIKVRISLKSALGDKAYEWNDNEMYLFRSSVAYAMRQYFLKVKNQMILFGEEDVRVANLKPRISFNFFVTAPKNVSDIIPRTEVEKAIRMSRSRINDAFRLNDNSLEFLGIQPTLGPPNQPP

wild-type SARS-CoV-1 S-Trimer (from UniProt P59594 14-1193) (domain or fragment)
Kd: 1.2 nM
